Source: PMC2914802

Assays:
Assay in all cases: steady-state hydrolysis kinetics
Format in all cases: biochemical, Burkholderia lata
Conditions in all cases: Zn2+; pH 8.0
[1] = substrate: CCCC(=O)N1CCC[C@H]1C(=O)O
[2] = substrate: CCC(=O)N1CCC[C@H]1C(=O)O
[3] = substrate: CC(=O)N1CCC[C@H]1C(=O)O

B1: Sgx9260c (Burkholderia lata) (protein)
chain: MTITVLQGGNVLDLERGVLLDHHHVVIDGDRIVEVTDRPVDFPNAQVIDVRGKTVMPGFIDCHVHVLASNANLGANATQPNILAAIRSLPILDAMLSRGFTSVRDAGGADWSLMQAVETGLVSGPRIFPSGKALSQTGGHGDFRPRGDLLEPCSCCFRTGAIARVVDGVEGVRLAVREEIQKGATQIKIMASGGVASPTDPIANTQYSEDEIRAIVDEAEAANTYVMAHAYTGRAIARAVRCGVRTIEHGNLVDEAAAKLMHEHGAFVVPTLVTYDALAKHGAEFGMPPESVAKVASVQQKGRESLEIYANAGVKMGFGSDLLGEMHEFQSGEFRIRAEVLGNLEALRSATTVAAEIVNMQGQLGVVAAGAIADLVVLDGNPLEDIGVVAGQGERVEYVLQRGRIVKAREFRRTMARE
Km [1]: 2600 ± 300 µM
kcat [1]: 146 ± 6 s⁻¹
kcat/Km [1]: 56000 M⁻¹ s⁻¹
Km [2]: 1900 ± 200 µM
kcat [2]: 141 ± 6 s⁻¹
kcat/Km [2]: 74000 M⁻¹ s⁻¹
Km [3]: 800 ± 100 µM
kcat [3]: 227 ± 9 s⁻¹
kcat/Km [3]: 280000 M⁻¹ s⁻¹
